Molecular target: DraIII restriction endonuclease (Deinococcus radiophilus ATCC 27603)
Experiment: crystal structure; DraIII incubated 1:1 with an 11-bp phosphorothioate canonical DNA duplex, SEC with 5 mmol/L MgCl2; crystals at 18°C, hanging drop, 0.1 mol/L Tris-Cl, 20% 2-propanol, 5% PEG 8000, pH 8.0; the DNA was not observed in the structure

- stoichiometry N: 2
Substance: DraIII restriction endonuclease (enzyme)
